Reference: paper PMC12416549 (2024)

B1: Y70Q (designed binder)
chain: SMEEEVEKAAKEYEKKKKEAIEKHLEKLKAKDKEAAERFLKELEEAAKEYAKDEAKTMSEEEAKRRAKKQKEKVLLSELSEEEQKEIKEAEEKLVRTILKYVEEAAK
B2: A35S (designed binder)
chain: SMEEEVEKAAKEYEKKKKEAIEKHLEKLKAKDKESAERFLKELEEAAKEYAKDEAKTMSEEEAKRRAKKYKEKVLLSELSEEEQKEIKEAEEKLVRTILKYVEEAAK
B3: L99E (designed binder)
chain: SMEEEVEKAAKEYEKKKKEAIEKHLEKLKAKDKEAAERFLKELEEAAKEYAKDEAKTMSEEEAKRRAKKYKEKVLLSELSEEEQKEIKEAEEKLVRTIEKYVEEAAK
B4: K85I (designed binder)
chain: SMEEEVEKAAKEYEKKKKEAIEKHLEKLKAKDKEAAERFLKELEEAAKEYAKDEAKTMSEEEAKRRAKKYKEKVLLSELSEEEQIEIKEAEEKLVRTILKYVEEAAK
B5: T57K (designed binder)
chain: SMEEEVEKAAKEYEKKKKEAIEKHLEKLKAKDKEAAERFLKELEEAAKEYAKDEAKKMSEEEAKRRAKKYKEKVLLSELSEEEQKEIKEAEEKLVRTILKYVEEAAK
B6: V74F (designed binder)
chain: SMEEEVEKAAKEYEKKKKEAIEKHLEKLKAKDKEAAERFLKELEEAAKEYAKDEAKTMSEEEAKRRAKKYKEKFLLSELSEEEQKEIKEAEEKLVRTILKYVEEAAK
B7: E86W (designed binder)
chain: SMEEEVEKAAKEYEKKKKEAIEKHLEKLKAKDKEAAERFLKELEEAAKEYAKDEAKTMSEEEAKRRAKKYKEKVLLSELSEEEQKWIKEAEEKLVRTILKYVEEAAK
B8: I98Y (designed binder)
chain: SMEEEVEKAAKEYEKKKKEAIEKHLEKLKAKDKEAAERFLKELEEAAKEYAKDEAKTMSEEEAKRRAKKYKEKVLLSELSEEEQKEIKEAEEKLVRTYLKYVEEAAK
B9: E4A (designed binder)
chain: SMEAEVEKAAKEYEKKKKEAIEKHLEKLKAKDKEAAERFLKELEEAAKEYAKDEAKTMSEEEAKRRAKKYKEKVLLSELSEEEQKEIKEAEEKLVRTILKYVEEAAK
B10: V95F (designed binder)
chain: SMEEEVEKAAKEYEKKKKEAIEKHLEKLKAKDKEAAERFLKELEEAAKEYAKDEAKTMSEEEAKRRAKKYKEKVLLSELSEEEQKEIKEAEEKLFRTILKYVEEAAK
B11: V6N (designed binder)
chain: SMEEENEKAAKEYEKKKKEAIEKHLEKLKAKDKEAAERFLKELEEAAKEYAKDEAKTMSEEEAKRRAKKYKEKVLLSELSEEEQKEIKEAEEKLVRTILKYVEEAAK
B12: A9I (designed binder)
chain: SMEEEVEKIAKEYEKKKKEAIEKHLEKLKAKDKEAAERFLKELEEAAKEYAKDEAKTMSEEEAKRRAKKYKEKVLLSELSEEEQKEIKEAEEKLVRTILKYVEEAAK
B13: E72K (designed binder)
chain: SMEEEVEKAAKEYEKKKKEAIEKHLEKLKAKDKEAAERFLKELEEAAKEYAKDEAKTMSEEEAKRRAKKYKKKVLLSELSEEEQKEIKEAEEKLVRTILKYVEEAAK
B14: K29T (designed binder)
chain: SMEEEVEKAAKEYEKKKKEAIEKHLEKLTAKDKEAAERFLKELEEAAKEYAKDEAKTMSEEEAKRRAKKYKEKVLLSELSEEEQKEIKEAEEKLVRTILKYVEEAAK
B15: Y50G (designed binder)
chain: SMEEEVEKAAKEYEKKKKEAIEKHLEKLKAKDKEAAERFLKELEEAAKEGAKDEAKTMSEEEAKRRAKKYKEKVLLSELSEEEQKEIKEAEEKLVRTILKYVEEAAK
B16: H24D (designed binder)
chain: SMEEEVEKAAKEYEKKKKEAIEKDLEKLKAKDKEAAERFLKELEEAAKEYAKDEAKTMSEEEAKRRAKKYKEKVLLSELSEEEQKEIKEAEEKLVRTILKYVEEAAK
B17: L28N (designed binder)
chain: SMEEEVEKAAKEYEKKKKEAIEKHLEKNKAKDKEAAERFLKELEEAAKEYAKDEAKTMSEEEAKRRAKKYKEKVLLSELSEEEQKEIKEAEEKLVRTILKYVEEAAK
B18: S77D (designed binder)
chain: SMEEEVEKAAKEYEKKKKEAIEKHLEKLKAKDKEAAERFLKELEEAAKEYAKDEAKTMSEEEAKRRAKKYKEKVLLDELSEEEQKEIKEAEEKLVRTILKYVEEAAK
B19: A36P (designed binder)
chain: SMEEEVEKAAKEYEKKKKEAIEKHLEKLKAKDKEAPERFLKELEEAAKEYAKDEAKTMSEEEAKRRAKKYKEKVLLSELSEEEQKEIKEAEEKLVRTILKYVEEAAK
B20: E82M (designed binder)
chain: SMEEEVEKAAKEYEKKKKEAIEKHLEKLKAKDKEAAERFLKELEEAAKEYAKDEAKTMSEEEAKRRAKKYKEKVLLSELSEMEQKEIKEAEEKLVRTILKYVEEAAK
B21: E42F (designed binder)
chain: SMEEEVEKAAKEYEKKKKEAIEKHLEKLKAKDKEAAERFLKFLEEAAKEYAKDEAKTMSEEEAKRRAKKYKEKVLLSELSEEEQKEIKEAEEKLVRTILKYVEEAAK
B22: R66V (designed binder)
chain: SMEEEVEKAAKEYEKKKKEAIEKHLEKLKAKDKEAAERFLKELEEAAKEYAKDEAKTMSEEEAKRVAKKYKEKVLLSELSEEEQKEIKEAEEKLVRTILKYVEEAAK
B23: E104C (designed binder)
chain: SMEEEVEKAAKEYEKKKKEAIEKHLEKLKAKDKEAAERFLKELEEAAKEYAKDEAKTMSEEEAKRRAKKYKEKVLLSELSEEEQKEIKEAEEKLVRTILKYVECAAK
B24: L79A (designed binder)
chain: SMEEEVEKAAKEYEKKKKEAIEKHLEKLKAKDKEAAERFLKELEEAAKEYAKDEAKTMSEEEAKRRAKKYKEKVLLSEASEEEQKEIKEAEEKLVRTILKYVEEAAK
B25: Y13T (designed binder)
chain: SMEEEVEKAAKETEKKKKEAIEKHLEKLKAKDKEAAERFLKELEEAAKEYAKDEAKTMSEEEAKRRAKKYKEKVLLSELSEEEQKEIKEAEEKLVRTILKYVEEAAK
B26: K29D (designed binder)
chain: SMEEEVEKAAKEYEKKKKEAIEKHLEKLDAKDKEAAERFLKELEEAAKEYAKDEAKTMSEEEAKRRAKKYKEKVLLSELSEEEQKEIKEAEEKLVRTILKYVEEAAK
B27: V102C (designed binder)
chain: SMEEEVEKAAKEYEKKKKEAIEKHLEKLKAKDKEAAERFLKELEEAAKEYAKDEAKTMSEEEAKRRAKKYKEKVLLSELSEEEQKEIKEAEEKLVRTILKYCEEAAK
B28: Y101T (designed binder)
chain: SMEEEVEKAAKEYEKKKKEAIEKHLEKLKAKDKEAAERFLKELEEAAKEYAKDEAKTMSEEEAKRRAKKYKEKVLLSELSEEEQKEIKEAEEKLVRTILKTVEEAAK
B29: I98S (designed binder)
chain: SMEEEVEKAAKEYEKKKKEAIEKHLEKLKAKDKEAAERFLKELEEAAKEYAKDEAKTMSEEEAKRRAKKYKEKVLLSELSEEEQKEIKEAEEKLVRTSLKYVEEAAK
B30: E5Q (designed binder)
chain: SMEEQVEKAAKEYEKKKKEAIEKHLEKLKAKDKEAAERFLKELEEAAKEYAKDEAKTMSEEEAKRRAKKYKEKVLLSELSEEEQKEIKEAEEKLVRTILKYVEEAAK
B31: E83L (designed binder)
chain: SMEEEVEKAAKEYEKKKKEAIEKHLEKLKAKDKEAAERFLKELEEAAKEYAKDEAKTMSEEEAKRRAKKYKEKVLLSELSEELQKEIKEAEEKLVRTILKYVEEAAK
B32: E60W (designed binder)
chain: SMEEEVEKAAKEYEKKKKEAIEKHLEKLKAKDKEAAERFLKELEEAAKEYAKDEAKTMSWEEAKRRAKKYKEKVLLSELSEEEQKEIKEAEEKLVRTILKYVEEAAK
B33: A67R (designed binder)
chain: SMEEEVEKAAKEYEKKKKEAIEKHLEKLKAKDKEAAERFLKELEEAAKEYAKDEAKTMSEEEAKRRRKKYKEKVLLSELSEEEQKEIKEAEEKLVRTILKYVEEAAK
B34: S1I (designed binder)
chain: IMEEEVEKAAKEYEKKKKEAIEKHLEKLKAKDKEAAERFLKELEEAAKEYAKDEAKTMSEEEAKRRAKKYKEKVLLSELSEEEQKEIKEAEEKLVRTILKYVEEAAK
B35: A51Q (designed binder)
chain: SMEEEVEKAAKEYEKKKKEAIEKHLEKLKAKDKEAAERFLKELEEAAKEYQKDEAKTMSEEEAKRRAKKYKEKVLLSELSEEEQKEIKEAEEKLVRTILKYVEEAAK

Target: T1, TNFR1 (Homo sapiens, UniProt P19438)
T1 chain: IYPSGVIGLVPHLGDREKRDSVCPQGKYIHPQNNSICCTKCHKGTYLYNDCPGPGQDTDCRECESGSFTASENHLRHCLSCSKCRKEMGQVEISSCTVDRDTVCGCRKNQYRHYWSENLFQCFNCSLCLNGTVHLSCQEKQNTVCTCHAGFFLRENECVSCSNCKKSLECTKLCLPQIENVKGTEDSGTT
Test: yeast display SC50

Binder | apparent Kd (screen) [nM]
B1 | 5.84
B2 | 0.79
B3 | 12.5
B4 | 0.539
B5 | 0.446
B6 | 9.41
B7 | 1.54
B8 | 5.84
B9 | 0.539
B10 | 13.8
B11 | 2.73
B12 | 0.446
B13 | 9.41
B14 | 0.593
B15 | 10.4
B16 | 1.4
B17 | 1.16
B18 | 11.4

Binder | apparent Kd (screen) [nM]
B19 | 0.446
B20 | 0.79
B21 | 12.5
B22 | 18.3
B23 | 1.27
B24 | 2.73
B25 | 1.69
B26 | 0.49
B27 | 1.4
B28 | 0.49
B29 | 11.4
B30 | 0.446
B31 | 1.27
B32 | 0.446
B33 | 7.07
B34 | 0.79
B35 | 0.446
